The source of these data is patent US20230364207A1.

A value given as a limit tells only on which side of the number the result lay.

In one data set the target is trastuzumab. The data set is described as follows: cell-based or functional assay.
The target in data set [1] is human IVIg (an intravenous human immunoglobulin).
Data set [2] has as its target IgG1 in the sera of humans.
The target in data set [3] is IgG in the sera of rabbits.
The target of data set [4] is IgG in the sera of monkeys.
The target in data set [5] is rabbit IgG (rabbit polyclonal IgG antibody 1 and 2).

Consider “IdeE C-terminal truncated mutant WT_delC5 (enzyme)”, for which the cleavage activity on human IgG1 relative to wild-type IdeE (SDS-PAGE) with trastuzumab was more than 2 fold.
On the same count and under the same terms, next, “IdeE C-terminal truncated mutant WT_delC10 (enzyme)”: more than 2 fold.
In the data set with trastuzumab, IdeE mutant A10K (enzyme) came in with a Fold of activity relative to wild-type (ELISA-based human IgG1 cleavage) of 1.99 fold.
Still for that read-out and setting: in the case of IdeE mutant A10R (enzyme) it was 2.2 fold.
Still for that read-out and setting: in the case of IdeE mutant A59I (enzyme) it was 2.31 fold.
In the data set with trastuzumab, IdeE mutant A59L (enzyme) showed a Fold of activity relative to wild-type (ELISA-based human IgG1 cleavage) of 2.41 fold and an activity of cleaving human IgG1 relative to wild-type IdeE (SDS-PAGE) of 2 fold.
On the same counts, the results for IdeE mutant A59V (enzyme) are 2.68 fold and 2 fold.
In the same order, the values of IdeE mutant E97D (enzyme) are 2 fold and 2 fold.
On the same counts, the results for IdeE mutant R280H (enzyme) are 2.3 fold and 2 fold.
On to IdeE mutant R280K (enzyme), for which the Fold of activity relative to wild-type (ELISA-based human IgG1 cleavage) with trastuzumab was 2.2 fold.
In the data set with trastuzumab, IdeE mutant T8D (enzyme) gave a Fold of activity relative to wild-type (ELISA-based human IgG1 cleavage) of 2.21 fold and an activity of cleaving human IgG1 relative to wild-type IdeE (SDS-PAGE) of 2 fold.
The molecule IdeE mutant T8E (enzyme) gave a Fold of activity relative to wild-type (ELISA-based human IgG1 cleavage) with trastuzumab of 2.09 fold.
With IdeE mutant T8W (enzyme), in the data set with trastuzumab, the Fold of activity relative to wild-type (ELISA-based human IgG1 cleavage) is 2.58 fold and the activity of cleaving human IgG1 relative to wild-type IdeE (SDS-PAGE) is 2 fold.
With IdeE mutant T8Y (enzyme), in the data set with trastuzumab, the Fold of activity relative to wild-type (ELISA-based human IgG1 cleavage) was found to be 2.3 fold.
IdeE mutant T24A (enzyme): in the data set with trastuzumab, the Fold of activity relative to wild-type (ELISA-based human IgG1 cleavage) amounted to 2.23 fold and the activity of cleaving human IgG1 relative to wild-type IdeE (SDS-PAGE) worked out at 2 fold.
Take IdeE mutant T24G (enzyme): the Fold of activity relative to wild-type (ELISA-based human IgG1 cleavage) in the data set with trastuzumab was 2.09 fold.
On the same count and under the same terms, in the case of IdeE mutant T24S (enzyme) it was 2.18 fold.

B1: IdeE combinatorial mutant E97D_del18 (protein)
chain: ITSVWTKGVTPLTPEQFRYNNEDVIHAPYLAHQGWYDITKAFDGKDNLLCGAATAGNMLHWWFDQNKTEIEAYLSKHPDKQKIIFNNQELFDLKAAIDTKDSQTNSQLFNYFRDKAFPNLSARQLGVMPDLVLDMFINGYYLNVFKTQSTDVNRPYQDKDKRGGIFDAVFTRGDQTTLLTARHDLKNKGLNDISTIIKQELTEGRALALSHTYANVSISHVINLWGADFNAEGNLEAIYVTDSDANASIGMKKYFVGINAHRHVAISAKKIEGENIGAQVLGLFTLSSGKDIWQKLSHHHHHH
In the case of B1, the “cleavage of human IVIg in mouse serum and plasma in vitro (SDS-PAGE)” value in data set [1] was “E97D_del18 can effectively cleave human IVIg in both the sera and plasmas of mice”. Further, in data set [2], the “cleavage in human serum in vitro (SDS-PAGE, 25 kD Fc fragment)” value was “E97D_del18 can effectively and specifically cleave IgG1 in the sera of humans”. In the data set with IgG in the sera of mice, the “cleavage in mouse serum in vitro (SDS-PAGE, 25 kD Fc fragment)” value is listed as “has very low or no activity of cleaving IgG1 in the sera of mice”. Also, the “cleavage of serum IgG of different species (SDS-PAGE)” value was “IgG in the sera of rats and mice was nearly uncleaved” with IgG in the sera of mice; “E97D_del18 can effectively cleave IgG in the sera of rabbits, dogs and monkeys” in the data set with dog IgG; “IgG in the sera of pigs was cleaved more effectively” with IgG in the sera of pigs; “IgG in the sera of rats and mice was nearly uncleaved” with IgG in the sera of rats; “IgG in the sera of rabbits was cleaved most effectively” in [3]; “E97D_del18 can effectively cleave IgG in the sera of rabbits, dogs and monkeys” in [4]. For the same molecule, the entries for the “cleavage of immunoglobulins of different species (SDS-PAGE)” value (with dog IgG; in data set [5]) were “E97D_del18 can effectively cleave dog IgG” and “E97D_del18 can effectively cleave ... rabbit IgG”, respectively.
